Tests used:
LT-α [1] = target: T1, LT-α (UniProt P01374); assay: ELISA, coated LT-α, Ab 100 nM
T1 sequence (looked up): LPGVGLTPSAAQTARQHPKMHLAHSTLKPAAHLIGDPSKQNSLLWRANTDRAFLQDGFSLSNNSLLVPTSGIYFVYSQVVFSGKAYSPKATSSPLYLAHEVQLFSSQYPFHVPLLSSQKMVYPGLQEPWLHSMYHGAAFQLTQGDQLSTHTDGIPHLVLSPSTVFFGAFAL

LT-α [2] = target: T1, LT-α; assay: ELISA, coated LT-α, Ab 0.000 nM (blank)
TNFα [3] = target: TNFα (UniProt P01375); assay: ELISA, coated TNF-α, Ab 6.25 nM
LT-α [4] = target: T1, LT-α; assay: ELISA, coated LT-α, Ab 25 nM
LT-α [5] = target: T1, LT-α; assay: ELISA, coated LT-α, Ab 1.563 nM
LT-α [6] = target: T1, LT-α; assay: ELISA, coated LT-α, Ab 6.25 nM
TNFα [7] = target: TNFα (UniProt P01375); assay: ELISA, coated TNF-α, Ab 0.000 nM (blank)
LIGHT [8] = target: LIGHT (UniProt O43557); assay: ELISA, coated LIGHT, Ab 1.563 nM
Chain of LIGHT (O43557 74-240 limits assumed): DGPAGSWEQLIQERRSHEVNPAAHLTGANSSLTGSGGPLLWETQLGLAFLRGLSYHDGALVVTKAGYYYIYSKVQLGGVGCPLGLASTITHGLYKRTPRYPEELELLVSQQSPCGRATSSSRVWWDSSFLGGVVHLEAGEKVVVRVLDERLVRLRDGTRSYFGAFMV

TNFα [9] = target: TNFα (UniProt P01375); assay: ELISA, coated TNF-α, Ab 100 nM
LT-α [10] = target: T1, LT-α; assay: ELISA, coated LT-α, Ab 0.391 nM
FASL [11] = target: FASL (UniProt P48023); assay: ELISA, coated FASL, Ab 6.25 nM
Chain of FASL (P48023 134-281 limits assumed): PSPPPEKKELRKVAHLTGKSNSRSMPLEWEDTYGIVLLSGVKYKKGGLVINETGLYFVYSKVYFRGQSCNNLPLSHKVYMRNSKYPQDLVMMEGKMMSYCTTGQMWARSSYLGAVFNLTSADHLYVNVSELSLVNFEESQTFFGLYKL

FASL [12] = target: FASL (UniProt P48023); assay: ELISA, coated FASL, Ab 0.000 nM (blank)
LIGHT [13] = target: LIGHT (UniProt O43557); assay: ELISA, coated LIGHT, Ab 25 nM
LIGHT [14] = target: LIGHT (UniProt O43557); assay: ELISA, coated LIGHT, Ab 100 nM
[15] = target: human TL1A (HuTL1A) (human) (UniProt O95150); assay: ELISA: biotin-HuTL1A on streptavidin plate, antibody diluted at pH 5.8, HRP-anti-human Fc, OD450
Chain of human TL1A (HuTL1A) (human) (O95150 57-251 limits assumed): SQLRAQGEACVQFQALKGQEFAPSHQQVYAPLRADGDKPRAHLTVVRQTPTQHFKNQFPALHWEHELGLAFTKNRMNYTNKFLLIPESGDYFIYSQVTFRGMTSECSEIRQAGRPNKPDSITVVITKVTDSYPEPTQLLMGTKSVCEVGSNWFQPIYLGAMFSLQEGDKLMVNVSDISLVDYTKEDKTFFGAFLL

LIGHT [16] = target: LIGHT (UniProt O43557); assay: ELISA, coated LIGHT, Ab 6.25 nM
TNFα [17] = target: TNFα (UniProt P01375); assay: ELISA, coated TNF-α, Ab 0.391 nM
TNFα [18] = target: TNFα (UniProt P01375); assay: ELISA, coated TNF-α, Ab 25 nM
[19] = target: human TL1A (HuTL1A) (human) (UniProt O95150); assay: competition ELISA: antibody dilution mixed 1:1 with Biotin-TL1A, added to coated DcR3 (1 µg/mL), Streptavidin-HRP, OD450; blocked partner of TL1A: DcR3
[20] = target: human TL1A (HuTL1A) (human) (UniProt O95150)
FASL [21] = target: FASL (UniProt P48023); assay: ELISA, coated FASL, Ab 1.563 nM
FASL [22] = target: FASL (UniProt P48023); assay: ELISA, coated FASL, Ab 0.391 nM
LIGHT [23] = target: LIGHT (UniProt O43557); assay: ELISA, coated LIGHT, Ab 0.391 nM
[24] = target: human TL1A (HuTL1A) (human) (UniProt O95150); assay: ELISA: biotin-HuTL1A on streptavidin plate, antibody diluted at pH 7.4, HRP-anti-human Fc, OD450
LIGHT [25] = target: LIGHT (UniProt O43557); assay: ELISA, coated LIGHT, Ab 0.000 nM (blank)
[26] = target: human TL1A (HuTL1A) (human) (UniProt O95150); assay: DLS, antigen and antibody mixed in equal moles
TNFα [27] = target: TNFα (UniProt P01375); assay: ELISA, coated TNF-α, Ab 1.563 nM
[28] = target: human TL1A (HuTL1A) (human) (UniProt O95150); remark: listed apart in the source
FASL [29] = target: FASL (UniProt P48023); assay: ELISA, coated FASL, Ab 100 nM
FASL [30] = target: FASL (UniProt P48023); assay: ELISA, coated FASL, Ab 25 nM

Chain of BM1 antibody (Pfizer/Roivant TL1A monoclonal antibody RVT-3101) (VH): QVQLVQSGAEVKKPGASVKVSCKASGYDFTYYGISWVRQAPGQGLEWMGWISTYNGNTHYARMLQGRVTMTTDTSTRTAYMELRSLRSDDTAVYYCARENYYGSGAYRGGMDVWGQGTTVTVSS
Chain of BM1 antibody (Pfizer/Roivant TL1A monoclonal antibody RVT-3101) (VL): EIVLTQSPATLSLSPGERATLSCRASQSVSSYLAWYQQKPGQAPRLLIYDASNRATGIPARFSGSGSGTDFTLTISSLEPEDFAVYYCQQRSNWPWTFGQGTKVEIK
Chain of TNFα (P01375 77-233 limits assumed): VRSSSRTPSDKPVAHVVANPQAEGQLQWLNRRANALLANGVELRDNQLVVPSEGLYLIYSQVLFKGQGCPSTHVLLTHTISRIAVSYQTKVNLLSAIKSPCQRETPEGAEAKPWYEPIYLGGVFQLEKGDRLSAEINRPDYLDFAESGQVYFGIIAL

OD450 nm (LT-α [1]): 0.0823
OD450 nm (LT-α [2]): 0.0972
OD450 nm (TNFα [3]): 0.0511
OD450 nm (LT-α [4]): 0.0845
OD450 nm (LT-α [5]): 0.095
OD450 nm (LT-α [6]): 0.0909
OD450 nm (TNFα [7]): 0.0666
OD450 nm (LIGHT [8]): 0.0887
OD450 nm (TNFα [9]): 0.0815
OD450 nm (LT-α [10]): 0.0978
OD450 nm (FASL [11]): 0.0513
OD450 nm (FASL [12]): 0.0544
OD450 nm (LIGHT [13]): 0.0916
OD450 nm (LIGHT [14]): 0.0996
EC50 (read off the curve) [15]: 0.1 nM
OD450 nm (LIGHT [16]): 0.0903
OD450 nm (TNFα [17]): 0.0539
OD450 nm (TNFα [18]): 0.0601
IC50 (read off the curve) [19]: 0.2 µg/mL
IC50 (read off the curve); SEAP reporter in HEK293T/DR3-NFκB cells with soluble TL1A, OD655 [20]: 2 nM
OD450 nm (FASL [21]): 0.0518
OD450 nm (FASL [22]): 0.051
OD450 nm (LIGHT [23]): 0.0834
EC50 (read off the curve) [24]: 0.1 nM
OD450 nm (LIGHT [25]): 0.0644
Ave Z-dia (nm) of the antigen-antibody complex [26]: 85.7 nm
OD450 nm (TNFα [27]): 0.0523
IC50 (read off the curve); IFN-γ of human T cells with IL-12, IL-18 and exogenous human TL1A [28]: 0.5 nM
OD450 nm (FASL [29]): 0.0855
OD450 nm (FASL [30]): 0.0609
Substance: BM1 antibody (Pfizer/Roivant TL1A monoclonal antibody RVT-3101)

— patent US20250313644A1
